Reference: publication PMC8528422

Target: FleQ, full length (FleQFL) (Pseudomonas aeruginosa) (UniProt G3XCV0)
Sequence (G3XCV0 whole entry): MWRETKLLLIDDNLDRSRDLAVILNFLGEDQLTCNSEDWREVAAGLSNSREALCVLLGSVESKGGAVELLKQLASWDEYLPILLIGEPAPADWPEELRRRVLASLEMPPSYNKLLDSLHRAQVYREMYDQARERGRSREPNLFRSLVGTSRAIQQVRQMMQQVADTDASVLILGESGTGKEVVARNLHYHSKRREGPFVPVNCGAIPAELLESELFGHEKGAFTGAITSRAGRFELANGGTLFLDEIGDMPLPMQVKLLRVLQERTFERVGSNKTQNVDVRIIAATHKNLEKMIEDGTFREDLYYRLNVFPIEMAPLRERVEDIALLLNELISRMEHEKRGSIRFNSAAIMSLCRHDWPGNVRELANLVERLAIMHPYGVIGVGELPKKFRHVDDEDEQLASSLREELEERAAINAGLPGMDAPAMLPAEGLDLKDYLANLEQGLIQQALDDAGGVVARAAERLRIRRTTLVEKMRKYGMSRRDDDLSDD

Question: Which ATPase activity of FleQ (1 μM) left with 100 μM C-terminal peptide of FleN does the source give for PANPRGHLEFFVERLVQHPATGSAV [C-terminal peptide of FleN comprising the last 25 amino acids] here?
Answer: Its ATPase activity of FleQ (1 μM) left with 100 μM C-terminal peptide of FleN is 66%.
